# Results taken from the RNAGym collection of RNA variant scans (doi:10.7554/elife.80360).
# B1: HDV Ribozyme (parent)
# chain: GGCCGGCAUGGUCCCAGCCUCCUCGCUGGCGCCGGCUGGGCAACAUUCCGAGGGGACCGUCCCCUCGGUAAUGGCGAAUGGGACCCA
# Variants of: B1
# Assay: self-cleavage, relative activity (ratio to wild type); higher = more cleavage; co-transcriptional
row,Variant,self-cleavage
1,GCCCGGCAUGGUCCCAGCCUCCUCGCUGGCGCCGGCUGGGCAACAUUCCGAGGGGACCCUCCCCUCGGUAAUGGCGAAUGGGACCCA [G2C G59C],0.0923
2,GGCCGGCAUAGUCCCAGCCUCCUCGCUGGCGCCGGCUGGGCAACAUUCCGAGGGGACCGUCCCCUCGGGAAUGGCGAAUGGGACCCA [G10A U69G],0.554
3,GGCCGGCAUGGUCCCAGCAUCCUCGCUGGCGCCGGCUGGGCAACAUUCCGAGGGGACCGUCCCCUCGGUAAUGGCGAAUGGUACCCA [C19A G82U],0.0898
4,GGCCGACAUGGUCCCAGCCUCCUUGCUGGCGCCGGCUGGGCAACAUUCCGAGGGGACCGUCCCCUCGGUAAUGGCGAAUGGGACCCA [G6A C24U],0.308
5,GGCCGGCAUGGUCCCAGCCUCCUCGCUGGCGCCGGCUGGGCAACAUUCCGAGGGGAGCGUCCCCUCGGUAAUGGCGAAUGGGACGCA [C57G C85G],1.09
6,GGCCGGCAUGGUCCCAGCCUCCUCGCUGGCGCCGGCUGGGCAACAUUCCGAGGGGACCGUCCGCUCGGUAAUGGCCAAUGGGACCCA [C63G G76C],0.967
7,GACCGGCAUGGUCCCAGCCUCCUCGCUGGCGCCGGCUGGGCAACAUUCCGAGGGGACCGUCCCCUCGGUACUGGCGAAUGGGACCCA [G2A A71C],0.13
8,GGCCGACAUGGUCCCAGCCUCCUCGCUGGCGCCGGCUGGGCAACAUUCCGAGGCGACCGUCCCCUCGGUAAUGGCGAAUGGGACCCA [G6A G54C],0.672
9,GGCCGGCAUGGAACCAGCCUCCUCGCUGGCGCCGGCUGGGCAACAUUCCGAGGGGACCGUCCCCUCGGUAAUGGCGAAUGGGACCCA [U12A C13A],0.0378
10,GGCCGGCAUGGUACCAGCCUCCUCGCUGGCGCCGGCUGGGCAACAUUCCGAGGGUACCGUCCCCUCGGUAAUGGCGAAUGGGACCCA [C13A G55U],0.0707
11,GGCCGGCAUGGUCCCAGCCUCCUCGCUGGCGCCGGCUGGGCAACAUUCCGAGGGGACCGUCCCCUCUGUAGUGGCGAAUGGGACCCA [G67U A71G],1.12
12,GGCCGGCAUGGUCCCAGCAUCCUCGCUGGCGCCGGCUGGCCAACAUUCCGAGGGGACCGUCCCCUCGGUAAUGGCGAAUGGGACCCA [C19A G40C],0.0587
13,GGCCGGCAUGGUCCCAGCCUCCUCGCUGGCGCCGUCUGGGCAACAUUCCGAGGGGACCGUCCCCUCGGUAAUGGCGAAUGGGACUCA [G35U C85U],0.623
14,GGCCGGCAUGGUCCCAGCCUCCUCGCUGGCUCCGGCUGGGCAACAUUCCGAGGGGACCGUCCCCUCGGUAAUGGCGAAUGGGUCCCA [G31U A83U],0.0627
15,GGCCGGCAUGGUCCCAGCCUACUCGCUGGGGCCGGCUGGGCAACAUUCCGAGGGGACCGUCCCCUCGGUAAUGGCGAAUGGGACCCA [C21A C30G],0.0652
16,GGCCGGCAUGGUCCCAGCCUCCUCGCCGGCGCCGGCUGGGCAACAUUCCGAGGGGACCGUCCCCUCGGUAAUGGCGAACGGGACCCA [U27C U79C],0.101

row,Variant,self-cleavage
1,GGCCGGCAUGGUCCCAGCCUCCUCGCUGGCGCCGGCUUGGCAACAUUCAGAGGGGACCGUCCCCUCGGUAAUGGCGAAUGGGACCCA [G38U C49A],0.264
2,GACCGGCAUGGUCCCAGUCUCCUCGCUGGCGCCGGCUGGGCAACAUUCCGAGGGGACCGUCCCCUCGGUAAUGGCGAAUGGGACCCA [G2A C18U],0.0239
3,GGCCGGCAUUGUCCCUGCCUCCUCGCUGGCGCCGGCUGGGCAACAUUCCGAGGGGACCGUCCCCUCGGUAAUGGCGAAUGGGACCCA [G10U A16U],0.846
4,GGCCGGCAUGGUCCCAGCCCCCUCGCUGGCGCCGGCUGGGCAACAUUCUGAGGGGACCGUCCCCUCGGUAAUGGCGAAUGGGACCCA [U20C C49U],0.192
5,GGCCGGCAUGGUCCCAGCCUCCUCGCUGGCGCCGGCGGGGCAACAUACCGAGGGGACCGUCCCCUCGGUAAUGGCGAAUGGGACCCA [U37G U47A],0.158
6,GGCCGGCAUGGUCCCAGCCUCCUGGCUGGCGCCGGCGGGGCAACAUUCCGAGGGGACCGUCCCCUCGGUAAUGGCGAAUGGGACCCA [C24G U37G],0
7,CGCCGGCAUGGUCCCAGCCUCCUCGCUGGCGCCGGCUGGGCAACAUUCCGAGGGGACCGUCCCCUCAGUAAUGGCGAAUGGGACCCA [G1C G67A],0.0898
8,GGCCGGCAUGGUCCCAGCCUCCUCGCUGGCGCCGGCUGGGCAACAUUCCGAGGGGACCGUGGCCUCGGUAAUGGCGAAUGGGACCCA [C61G C62G],1.05
9,GGCCGGCAUGGUCCCAGCCUCCUCGCUGGCGCCGGCUGAGCAACAUUCCGAGGGGACCGUCCCCUCGGUAAUGGCGAAUGGAACCCA [G39A G82A],0.136
10,GGCCGGCAUGGUCCCAGCCGCCUCGCUGACGCCGGCUGGGCAACAUUCCGAGGGGACCGUCCCCUCGGUAAUGGCGAAUGGGACCCA [U20G G29A],0.161
11,GGCCGGCAUGGUCCCAGCCUCCUCGCUGGCGCCGGCUGGGCAACAUUCCGAGGGGAACGUCCCCCCGGUAAUGGCGAAUGGGACCCA [C57A U65C],0.762
12,GGCCGGCAUGGUCCCAGCCUCCUCGCUGGCGCGGGCUGGGCAACAUUCCGAGGGGUCCGUCCCCUCGGUAAUGGCGAAUGGGACCCA [C33G A56U],0.228
13,GGGCGGCAUGGUCCCAGCCUCCUCGCUGGCGCCGGCUGCGCAACAUUCCGAGGGGACCGUCCCCUCGGUAAUGGCGAAUGGGACCCA [C3G G39C],0.157
14,GGCCGGCAUAGUCCCAGCCUCCUCGCUGGCGCCGGCUGGGCAACAUUCCGAGGGGACCGUCCCCUCGGUAAUGGCGGAUGGGACCCA [G10A A77G],0.53
15,GGCCGGCAUGGUCCCAGCCUCCUUGCUGGCGCCGGCUGGGCAACAUUCCGAGGGGACCGUCCCCUCGGUAGUGGCGAAUGGGACCCA [C24U A71G],0.648
16,GGCCGGCAUGGUCCCAGCCUCCUCGCUGGCGCCGGCUGGGCAACAGUCCGAGGGCACCGUCCCCUCGGUAAUGGCGAAUGGGACCCA [U46G G55C],0.98
